Experimental data published in publication PMC11931385, “Structural and functional analysis of cancer-associated missense variants in the retinoblastoma protein pocket domain” (The Journal of Biological Chemistry, 2025).
Numbering of substitutions follows the chain as printed. Names and notes keep the numbering of the source. No end group written: not given here. TMR = tetramethyl rhodamine dye

Key:
Test in all cases: fluorescence polarisation; 37 °C, after the 25 °C reading ramped over 7 min to 37 °C and 2 min incubation; unlabeled Rb^P against 1.5 nM TMR-E2F1^TD or 7.5 nM TMR-E7^LxCxE; 25 mM Tris pH 8.0, 200 mM NaCl, 1 mM DTT, 0.1% Tween-20; apparent Kd
Details in all cases: both partners purified
Rb^P V754G = molecular target: T1, Rb^P V754G (human, UniProt P06400 380-788, V754G)
T1 construct: also called variant 73
T1 sequence (looked up): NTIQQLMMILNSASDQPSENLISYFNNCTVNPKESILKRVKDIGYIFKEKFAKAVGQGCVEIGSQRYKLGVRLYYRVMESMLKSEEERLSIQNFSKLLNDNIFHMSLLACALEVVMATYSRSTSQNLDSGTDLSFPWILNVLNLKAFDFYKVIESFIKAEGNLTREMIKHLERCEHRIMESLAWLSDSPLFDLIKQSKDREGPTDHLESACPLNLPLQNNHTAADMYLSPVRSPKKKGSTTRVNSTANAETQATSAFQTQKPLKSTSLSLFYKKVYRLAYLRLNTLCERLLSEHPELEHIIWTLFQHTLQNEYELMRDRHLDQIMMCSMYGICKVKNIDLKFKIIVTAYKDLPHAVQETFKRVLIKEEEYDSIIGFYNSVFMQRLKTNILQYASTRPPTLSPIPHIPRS

Rb^P R611S = molecular target: T2, Rb^P R611S (human, UniProt P06400 380-788, R611S)
T2 construct: also called variant 38
T2 sequence (looked up): T1 sequence (looked up) with R232S, G375V

Rb^P D697E = molecular target: T3, Rb^P D697E (human, UniProt P06400 380-788, D697E)
T3 construct: also called variant 62
T3 sequence (looked up): T1 sequence (looked up) with D318E, G375V

Rb^P S534R = molecular target: T4, Rb^P S534R (human, UniProt P06400 380-788, S534R)
T4 construct: also called variant 23
T4 sequence (looked up): T1 sequence (looked up) with S155R, G375V

Rb^P S751C = molecular target: T5, Rb^P S751C (human, UniProt P06400 380-788, S751C)
T5 construct: also called variant 71
T5 sequence (looked up): T1 sequence (looked up) with S372C, G375V

B1: TMR-E2F1^TD, peptide of the E2F1 transactivation domain (peptide)
peptide: {TMR}-GEGIRDLFDCDFGDLTPLD
notes: also called E2F^TD; source: synthetic peptide, bought: GenScript
Work on B1 yielded a Kd (Rb^P V754G) of 34 nM, a Kd (Rb^P R611S) of 30 nM and a Kd (Rb^P D697E) of 129 nM. For the same binder, the Kd (Rb^P S534R) was 18000 nM and the Kd (Rb^P S751C) was 137 nM.

B2: TMR-E7^LxCxE, LxCxE peptide of the E7 oncoprotein from HPV (peptide)
peptide: DLYCYEQLN
modifications: also: TMR label, position not given here
notes: source: synthetic peptide, bought: GenScript
B2 was tested, and the Kd (Rb^P V754G) was 15 nM, the Kd (Rb^P R611S) was 15 nM and the Kd (Rb^P D697E) was 46 nM. For the same binder, the Kd (Rb^P S534R) was 11 nM and the Kd (Rb^P S751C) was 98 nM.
